This series relates to O=C(O)C(CO)OP(=O)(O)O. The series can be described thus: Enolase single enzyme assay: conversion of 2-phosphoglycerate to phosphoenolpyruvate, absorbance at 240 nm. It counts as biochemical. The note with it: 7.7 mM KCl. The text has this:
FIG. 7: Michaelis-Menten plot depicting the change in absorbance at 240 nm/minute as a function of the concentration of 2-phosphoglycerate (mM) as catalyzed by the plasmin binding protein. The change in absorbance is due to the conversion of 2-phosphoglycerate to phosphoenolpyruvate. Conditions as described in Example 1.
FIG. 8: Double-reciprocal plot depicting the change in the reciprocal of the absorbance at 240 nm/minute as a function of the reciprocal of the concentration of 2-phosphoglycerate (mM) as catalyzed by the plasmin binding protein. The change in absorbance is due to the conversion of 2-phosphoglycerate to phosphoenolpyruvate. Conditions as described in Example 1.
The molecular weight of the plasmin binding protein for one particular embodiment of the present invention has been determined to be approximately 45 kDa by SDS-PAGE.
(b) For the kinetic studies, the single enzyme assay was used, involving only the conversion of 2-phosphoglycerate to phosphoenolpyruvate by enolase. This simpler reaction avoids possible interactions of the effectors with the other enzymes. The reaction was performed at 30° C. in 100 mM HEPES buffer, pH 7.0, containing 10 mM MgSO4, 3.2 mM EDTA and 7.7 mM KCl and varying concentrations of 2-phosphoglycerate (0.19-7.5 mM). The change in absorbance/min was monitored at 240 nm. […] Michaelis-Menten and Lineweaver-Burke plots were drawn from the data obtained using 5 μg of SEN and varying concentrations of 2-phosphoglycerate (FIGS. 7 and 8). […] A concentration-dependent increase in the enolase activity was also found for the intact, washed streptococci (FIG. 5).

Setting [1] is: other: 0.1 M Hepes pH 7.0, 10 mM MgSO4, 3.2 mM EDTA, 30° C.
The mark [2] stands for this setting: other: 30° C., 100 mM HEPES pH 7.0, 10 mM MgSO4, 3.2 mM EDTA, 5 μg SEN, 2-phosphoglycerate 0.19-7.5 mM, Michaelis-Menten and Lineweaver-Burke plots.

Usually Km stands for the concentration of substrate that gives half-maximal velocity. As to “streptococcal surface enolase (SEN), 45 kDa plasmin binding protein purified from group A streptococci type M6 strain D471, N-terminal sequence SEQ ID NO: 1 (Streptococcus pyogenes MGAS10394)”, under setting [1], the Km came to 1500 µM and the Vmax is 270 μmol per minute-mg protein. Further, under setting [2], the Km came to 1500 µM and the Vmax is reported as 270 μmol per minute-mg protein.
